Experimental data: a protein production outcome set (Wang et al. 2014)

Assay: label from the status in PepcDB records

Sequence | protein production
PLLTEEALFGEDRHVLGEKGVVVRVFSDFQCPYCQRLAREVLPALKAMAREGRLRLAYRHFPLYEIHPEAVPAAVASECAAAQGAFWAYHDLLMAGSGWDYPALARRLGLDPKAFQACLEDPASRAPVEADRALAERLGLPGTPSVFVGPFRLPNPFDLERYRDYLALAEAL | failed
SEEPPVREEEEEEGEEDEERDEVGPEGALGKSPFQLTAEDVYDISYLLGRELMALGSDPRVTQLQFKVVRVLEMLEALVNEGSLALEELKMERDHLRKEVEGLRRQSPPASGEVNLGPNKMVVDLTDPNRPRFTLQELRDVLQERNKLKSQLLVVQEELQCYKSGLIPPREGPGGRREKDAVVTSAKNAGRNKEEKTIIKKLFFFRSGKQT | failed
MKIRTTLTLQYAGITAAVFFAFVIAVYYVSEHSRSNAFFRNLQSEAITKAHLFLNNQVDAKTMQSIYLNNQKFINEVEVAVYTTDFKILYHDALQNDIVKETPEMVKRILKRKNISFYVDEYQAIGLVYPFEGQYYIVTAAAYDGYGYANRDALRNMLILLFIGGLSVLAIVGYILSRSTLKPIRNIVREAEKITASHIDKRLPVKNEQDELGELSITFNALLERLEKSFNSQKMFVSNVSHELRTPMAALTAELDLALLKERTSGQYQAAIGNALQDSRRIINLIDGLLNLAKADYQSEQITMEEVRLDELLLDARELVLKAHPDYHIELVFEQEAEEDNVLTVIGNSYLLTTAFVNLVENNCKYSSNRTSSVLIAYWEQWAIIRLSDNGVGMSDADKENLFKLFYRGENKNIAPGNGIGMVLTQKIIHLHKGELTVSSHKDEGTTFVVKLPHI | failed
MSQYVVCALYKFVELNNYQELREPLLALMEKHHIRGTLLLAGEGINGTVASDRAGIDTLLEWLNTEPRLTGTVYKESYSETQPFNRTKVKLKKEIVTLGVEGIDPRHVVGTYVKPQDWNDLIADPEVFVVDTRNDYEIEIGTFKGAVNPNTETFREFPDYVKENMDPAKHKKVAMFCTGGIRCEKSTAYMKEQGFEEVYHLEGGILKYLEEVPQEESMWEGDCYVFDGRVAVNHQLEKADYDLCNACRLPITDEDKQSELFEQGVSCPKCHGKHSEEQVERFREREKQVSLANQRGEQHVGGESAKQRAQRREAKLAKKAAQRKQA | failed
MERGRSDMEMINNMANCLILLSKAHQNDTKSRVFACKTCNKEFPSFQALGGHRASHRRSAALEGHAPPSPKRVKPVKHECPICGAEFAVGQALGGHMRKHRGGSGGGGGRSLAPATAPVTMKKSGGGNGKRVLCLDLNLTPLENEDLKLELGRFIF | failed
MDIIPILLLAAGQSRRMGGADKLMQEIDGMPLLRRTALRAIPVAPVIAALPPAPHPRHGALVGLTLDIVEVPDAAEGMNASLRRAVAALPPEAPAAMILLADLPDLTESDLNTVRRAVDFSQKNLIWRGATEDGQPGHPVVFHRCLFPQLLALRGDQGAQPLVRDHADRVALVPLPGQHARTDLDTPEAWADWRARQQ | failed
MSQALPVRDQGRDQGIFAGTLPPAPPKFKWTRLDTYTWAIIAVFALVTRFTGLSSATASGTPVFDEKHYVPQAWDMVRSWINPITGGIESNPGYGLVVHPPLAKQLEALGEWVFGYTPLGWRIMVAIFGTLTIFAIMAIARRLSGSTMVTFIAGILALADGVLLVSSRFGMLDIFLVFFITAAAWALIRDHQQMHQRLNDLLLTNGQITKDFGPRFGFRWWRFTTGVFLGLALSVKWSGLYYIAFFGLTSVFLDLWLRKRYGVRRYVTGTLKNDVIPALGSLVIIPALLYIWSWRAWFASETSVYRHAKTDGTITEDSILQLFPESIAGWIHYHISVLEFHGSLTTSSGHSHPWDSKPWAWLVSGRPILYFSSTDISCDVGGTCRRMIYLFGTPAIWWLTVPVILWALWSFFARRSRGYVVPLVAFAAGFLPWLAAYDRQMYFFYATALVPFTIIMLALACGELWGRGKMTPTGLTRGSMAVVTYISLVVMMFLAFSPLFYGFVIPDYVYESLMWFPSWR | not failed
MKRRAGLGGSMRSVVGFLSQRGLHGDPLLTQDFQRRRLRGCRNLYKKDLLGHFGCVNAIEFSNNGGQWLVSGGDDRRVLLWHMEQAIHSRVKPIQLKGEHHSNIFCLAFNSGNTKVFSGGNDEQVILHDVESSETLDVFAHEDAVYGLSVSPVNDNIFASSSDDGRVLIWDIRESPHGEPFCLANYPSAFHSVMFNPVEPRLLATANSKEGVGLWDIRKPQSSLLRYGGNLSLQSAMSVRFNSNGTQLLALRRRLPPVLYDIHSRLPVFQFDNQGYFNSCTMKSCCFAGDRDQHHNWKWRAQAVSFQPFLSLTRNGDADVDLKLAV | failed
MKIIELPIEFEFNGQKQCIYPSLIILHNELTLVDTGYPSFLPLIENAILKHGYEMKNLKNIIITHYDDDHIGAVYDFKVKYPNINVIASEIESNYINGDIKSERLVQAEEMLERMPNEEKEFGKWFIQQLKNIKHISVDEKVHDGQMILNNECQVVATPGHTSGHISLYFPNLDCVITGDAAVQENRELVIANPNFCLDIEKAKQSLNRIKSFKAAQYYCYHGGKLTV | failed
MLNKLMWLTGKAQEDWIEKILHLRQKIWPDYQRIKNDTLFKLYSHYPLYQWLSHYNGEVVAVINSLPVALDQSLDNLPQEGLNWVLSHLESTTPLTQSNYLAAVSVTVNPAYQRLGLSKLLLNRLKASAQEAQYKALIVPARPSQKENYPLISLEDYLKWKRVDNTIFDPWLRVHAQLGGKIAYPCQRSRVITANVAQWEQWLGHPLLQTGQYLVKGGLNPITINKEKDIGIYIEPNVWVIHDL | failed
RAGHIEVAEVEGMSFPVKLDTGADVSSINAKDIKLFQKDGKDMVSFTYENDLGMQKAFTREVVDVMKITAKKGEKANVRPVVEMHVKLGELEKKIRVNLQDRGRFHYSMILGKNFLKHGALVASETNYIVTKK | not failed
MAEILRAENIKKVIRGYEILKGISLSVKKGEFVSIIGASGSGKSTLLYILGLLDAPTEGKVFLEGKEVDYTNEKELSLLRNRKLGFVFQFHYLIPELTALENVIVPMLKMGKPKKEAKERGEYLLSELGLGDKLSRKPYELSGGEQQRVAIARALANEPILLFADEPTGNLDSANTKRVMDIFLKINEGGTSIVMVTHERELAELTHRTLEMKDGKVVGEITRV | not failed
MQEGNFKAGTYSAARQGIGGDVTVTLDIDAQGKVLKSTIDALEETPEVGGEAAIELAKTMTEKQSIQVDGVSGATMTSGAVHEAAEDAYSQAKANLEHHHHHH | not failed
MGNLKAEYLEQTYIDLAPLKDAEDCRTYLTRSQVDGSLAVRKEICALQYPLYQQLIDFSHPSLARVLETYTKDGRYFVLEEYVSGSTIGSYLKRGYHFQEHEILSFISQLCSALSFLHAHNIIHRDVTPENLLISTDNVLKLIDFGISRSKKEGQSQDTTILGTVGYAAPEQFGFGQTDERTDIYATGVLLNVLLTGSLPKDDLPFDPRYRQIVLKCTSISPADRYSSVSELKSQIMAIKPTRIYQAEIVEPSGKAPRKDSLIRRFFRHVPGFRTGNPGKMIVAIIGYFLMLLFVVVNGTRPLEPGDIRSEYWTINYFFVGVWAAYVNLGNYCGHIEAYDKVGPLTRLLLRTAVALAVFLTTGLLLYFENYCLK | failed
AHARLQITQFAMDSVGIGIQWIDPDSGRFVYANRHTAELLGYSEQEMLTLTVSDIDPAFPLPAFHATMARLRQSRYTQFQSQIETRGGVPIPVEITLYYMEGDADAPARVIAFLTDISRRKETEQTLVQAKEAAEKANLAKTAFVANMSHEIRTPMNAILGMV | failed
MNALVAHNSEAWDKKVETGNEWTVAVEQQVIEQAKKGNWDIRVTPMKDVPKDWFPPIKGLKVLCLASGGGQQGPVLAAAGADVTVLDNSEKQLNQDRMIAERDGLTIHTVKGSMDDLSVFNDESFDVIVHPVANVFVENVLPVWKEAYRVLKRNGILISGFVNPVVFLFDTVLEQQGVLKVKHSIPYADPEDLPKHKVKELIENNEALEFGHSLEDQIKGQIDAGFIVTGFYEDKGGFVLDQYIHTYSATRSVKVLEHHHHHH | not failed
MISMKEEIKKVIEETGLPIITDEKSGAAQWVDLRELRLSYIISVENIKPFYEGLKEGKLLGTKCKKCGRLFFPPQKDCPSCFDSDIEWVELKNEGTLETMTVVFVRPPSFSAYDPYPVAIAKLDDGPRILAWYKGDPQQAKPGMRVKIQVGKRKEGYLMYEIAPALEHHHHHH | failed
MNPEPRCPCVLLLDTSGSMQGAAIEALNQGLLSLKDELMKNSIAARRVEIAIVTFDSHINVIQDFVTADQFNPPILTAQGLTSMGAGIHKALDMVQERKSLYRANGVAYYRPWVFMITDGEPQGELDHLVEQAALRLQGDEVNKRVAFFSVGVENANMTRLNQIAVRTPLEHHHHHH | failed
MFVLKNFKIVFSYFPIVLQYILNVALICLGVVLSVFLMKEVIQFMQELKLDGNESSYHLIDSIVVFFLYFEFIVMIIKYFQMNFHFPLRYFIYIGITAIVRLIIIDHDSPLDLLLYACAIFVLISALFIANSKMMRWDLE | failed
PMVLVVLDHDGNRLKKGSLEALTRARDLAQALGGKVAGVLLAEEKAPVEEARKYVEVLYTATLGPYTAEKWAAGVLKAAEASGAKAVVAPSSRQSRAYLGRVAYALRAGLLEDTLESRVEGGEVHATRYAYLNRVTQRVKAALPVVLTVKPNTTPLAEPLPGEAEAVALSVPEVPTVEVLERLQEEKKGVS | failed
MDNLNVFANEDNQVNGLKRPPPSRVCPRCDSDNTKFCFYNNYSESQPRYFCKNCRRYWTHGGALRNIPVGGSCRKPKRLKVDQSSISEMVSVENQPINHQSFRQTQENNEFVRSFDASSSATVTAVPNHFGYLSELHGVTNLLPIQSFRTMDCLDFGDESFQQGYYDVGSNDLIDNPLINQSIGGYVDNLTSYCINQVEPKLQPRYEHES | failed
MLIVNREEYSKSDFDLRLQAYEEMEQFQEAAGNRFALCLKDPFDIITLVFFLKEKKSSVLLIHEDTPKETAIEMAKRANCIGILYGENSDFTKLEAVNYLAEEPSLLQYSSGTTGEPKLIRRAWTEVDTEIKVYNEALNCDIDEVPIVMAPVSHSYGLICGTLSAITRGSKPIIITNKNPKFALNIVRNTEKHIVYAVPLMLHIMGSFPQGTFQFHKIMTSGAPLPEALFYKLKETTTYMMQQYGCSEAGCISICHDMKSHLDLGNPLPHASISIGSDENAPEEIIVKMNDKEIFTKDLGYKSERGLHFMGRMDDVINVSGLKVFPIEVEETMLRLEGVQEAIVYRGKHPVMGEIVKAKVISHIDPVQIREWCMQHLPSYKVPHEIESVTEIPKNKTGKVSRKLLEMGEVTT | failed
MKIRVDDITDQPKILSFQEPSEAFPSLAELQATGESEFLSPLMVELAVSKEYGHIRVKGSVAVKIRFVCSRCLVPFDADISSAFTMFYSEGSRIDSDEDEIELAEEDLVSVFYEGDEIDFAPEIAEQVIMELPLKPLCGEGCKGLCVTCGADLNEGECGCERTTFNVKFSALKNFKVEKLEHHHHHH | not failed
MTELTILLGLAAAGYGVSHWTQLPAIPFLLMGGLALNATGAVGDAGFVEDVLFLSVSILLFVAGTDLSLTRVGPFKKTAFVIGVAQFAGLAAAALGIAYGLDYALTDALYLGLALAASSTIVGVRLLQRRQQMFEPYGRTVLGALLLQDVIVVLLLPLLVRLPDGSAAVLGSLGGTIVLLVGVGVVMKGVVPLLLKRELDAETQLLAVLGVLFGFMGAAAWLDVPLFAAAFLAGVSLSGFPFSGIVHSEMQPLYDFFSALFFASLGVAAPQPAPVLFGHAALFAGAVLVLTPLIVAVVGAWAGLVAQSALESGLLLAQTSELSLVVGLQALVAGQIGGEVFSVIVLTTVFTMMLTPLLTSETVVWELVRWHPSRQSDVLSEVPSNHVLVVGGGRSARPLLRLLRESKYEAVVVDEDPTVVDRLRDQGVRCVRGDGSDRAVLLKAGGAQARIVVSLLRNPKAVESLLDYVGDTVPILVRVFEDHEAEWVEARGGTPIRFAHAASDAFMEWFRRAQSARSKQPPSGT | failed
